Source: patent publication US20250339569A1 (3B PHARMACEUTICALS, published 2025)
Starred links: 1 amine or outer side, 2 acyl side, 3 side chain; linkers in the order of their positions; H or OH if unused. Positions of bridges follow the written chain, without caps; N, C: chain ends. Non-standard residues stand in square brackets, D forms with d. Groups on a side chain read outwards from the residue. Primed or numbered codes have the meaning given here. No end group written: not given here. *: point of attachment. Af3(2Py6SaNH) = 3-amino-L-phenylalanine, ring amine acylated by 6-(sulfamoylamino)pyridine-2-carboxylic acid, NS(=O)(=O)Nc1cccc(C(=O)Nc2cccc(C[C@H](N[*:1])C(=O)[*:2])c2)n1; Af3(4SaPy2Ac) = 3-amino-L-phenylalanine, ring amine acylated with (4-sulfamoylpyrazol-1-yl)acetic acid, NS(=O)(=O)c1cnn(CC(=O)Nc2cccc(C[C@H](N[*:1])C(=O)[*:2])c2)c1; Af3(TzPr) = 3-amino-L-phenylalanine acylated on the ring amine with 3-(1H-1,2,4-triazol-3-yl)propanoic acid, O=C(CCc1nc[nH]n1)Nc1cccc(C[C@H](N[*:1])C(=O)[*:2])c1; Af3(Ac-Glu) = 3-aminophenylalanine acylated on the ring amine with N-acetyl-glutamic acid, CC(=O)N[C@@H](CCC(=O)[*:3])C(=O)Nc1cccc(C[C@H](N[*:1])C(=O)[*:2])c1; Af3(Hsfu) = 3-amino-L-phenylalanine, ring amine acylated with 4-sulfamoylfuran-2-carboxylic acid, NS(=O)(=O)c1coc(C(=O)Nc2cccc(C[C@H](N[*:1])C(=O)[*:2])c2)c1; Aph(SaPr)″ = 4-amino-L-phenylalanine, ring amine acylated with 3-sulfamoylpropanoic acid, NS(=O)(=O)CCC(=O)Nc1ccc(C[C@H](N[*:1])C(=O)[*:2])cc1; Aph(SaPr) = 4-amino-L-phenylalanine, ring amine acylated by 3-sulfamoylpropanoic acid, NS(=O)(=O)CCC(=O)Nc1ccc(C[C@H](N[*:1])C(=O)[*:2])cc1; Af3(HO-Succinyl) = 3-aminophenylalanine with succinyl (free acid) on the ring amine, O=C(CCC(=O)[*:3])Nc1cccc(C[C@H](N[*:1])C(=O)[*:2])c1; Eem = S-benzyl-cysteine-sulfone, O=C([C@H](CS(=O)(=O)Cc1ccccc1)N[*:1])[*:2]; Phe(3-NHCO(CH2)3SO2NH2) = N[C@@H](Cc1cccc(NC(=O)CCCS(N)(=O)=O)c1)C(=O)O; APAc″ = 2-(4-(amino)piperidin-1-yl)acetic acid, NC1CCN(CC(=O)*)CC1; DOTA = O=C(O)CN1CCN(CC(=O)O)CCN(CC(=O)*)CCN(CC(=O)O)CC1; PPAc = 4-carboxymethyl piperazine linker; mXylylene = c1cc(C[*:1])cc(C[*:2])c1; tBuAla = CC(C)(C)C[C@H](N)C(=O)O; NMeD = CN[C@@H](CC(=O)O)C(=O)O; N4BzlCl = not defined here; hSer = N[C@@H](CCO)C(=O)O; AGLU′ = not defined here; APAc = not defined here; Apr = not defined here; Dap = NC[C@H](N)C(=O)O; Nlys = NCCCCNCC(=O)O; Ttds″ = Ttds spacer; Bn = c1ccc(C*)cc1

B1: 3BP-4337 (peptide)
peptide: VDCE[dP]DWLTW[Dap]C-NH2
modifications: lactam 2-11; linker 3-12 via mXylylene; not fully specified (N-terminus); also: indium complexed by DOTA
B2: 3BP-4453 (peptide)
peptide: {DOTA}-QCE[dP]D[Phe(3-NHCO(CH2)3SO2NH2)]LTWSC-NH2
modifications: linker 2-11 via mXylylene
SMILES: CC(C)C[C@@H]1NC(=O)[C@H](Cc2cccc(NC(=O)CCCS(N)(=O)=O)c2)NC(=O)[C@H](CC(=O)O)NC(=O)[C@H]2CCCN2C(=O)[C@H](CCC(=O)O)NC(=O)[C@@H](NC(=O)[C@H](CCC(N)=O)NC(=O)CN2CCN(CC(=O)O)CCN(CC(=O)O)CCN(CC(=O)O)CC2)CSCc2cccc(c2)CSC[C@@H](C(N)=O)NC(=O)[C@H](CO)NC(=O)[C@H](Cc2c[nH]c3ccccc23)NC(=O)[C@H]([C@@H](C)O)NC1=O
B3: 3BP-3905 (peptide)
peptide: {DOTA-APAc}-VYCE[dP]DWLTWSC-NH2
modifications: linker 3-12 via mXylylene; reading uncertain; also: ['indium complexed by DOTA']
B4: 3BP-3565 (peptide)
peptide: Ac-VYCE[dP]DWLTWSC-NH2
modifications: linker 3-12 via mXylylene
SMILES: CC(=O)N[C@H](C(=O)N[C@@H](Cc1ccc(O)cc1)C(=O)N[C@H]1CSCc2cccc(c2)CSC[C@@H](C(N)=O)NC(=O)[C@H](CO)NC(=O)[C@H](Cc2c[nH]c3ccccc23)NC(=O)[C@H]([C@@H](C)O)NC(=O)[C@H](CC(C)C)NC(=O)[C@H](Cc2c[nH]c3ccccc23)NC(=O)[C@H](CC(=O)O)NC(=O)[C@H]2CCCN2C(=O)[C@H](CCC(=O)O)NC1=O)C(C)C
B5: 3BP-3282 (peptide)
peptide: Ac-VYCE[dP]DWLTWAC-NH2
modifications: linker 3-12 via mXylylene
SMILES: CC(=O)N[C@H](C(=O)N[C@@H](Cc1ccc(O)cc1)C(=O)N[C@H]1CSCc2cccc(c2)CSC[C@@H](C(N)=O)NC(=O)[C@H](C)NC(=O)[C@H](Cc2c[nH]c3ccccc23)NC(=O)[C@H]([C@@H](C)O)NC(=O)[C@H](CC(C)C)NC(=O)[C@H](Cc2c[nH]c3ccccc23)NC(=O)[C@H](CC(=O)O)NC(=O)[C@H]2CCCN2C(=O)[C@H](CCC(=O)O)NC1=O)C(C)C
B6: 3BP-4264 (peptide)
peptide: {DOTA}-VDCE[dP]DWLTW[Dap]C-NH2
modifications: lactam 2-11; linker 3-12 via mXylylene
SMILES: CC(C)C[C@@H]1NC(=O)[C@H](Cc2c[nH]c3ccccc23)NC(=O)[C@H](CC(=O)O)NC(=O)[C@H]2CCCN2C(=O)[C@H](CCC(=O)O)NC(=O)[C@@H]2CSCc3cccc(c3)CSC[C@@H](C(N)=O)NC(=O)[C@H](CNC(=O)C[C@H](NC(=O)[C@@H](NC(=O)CN3CCN(CC(=O)O)CCN(CC(=O)O)CCN(CC(=O)O)CC3)C(C)C)C(=O)N2)NC(=O)[C@H](Cc2c[nH]c3ccccc23)NC(=O)[C@H]([C@@H](C)O)NC1=O

Assays:
[1] = target: T1, Fc-fusion protein of human carbonic anhydrase IX (human, UniProt Q16790 38-414); experiment: SPR, captured hCAIX-Fc; t1/2 category A: >15.0 min
Protocol: (§1) Stock solutions of test compounds were prepared by dissolving each compound in DMSO. DMSO stock solution were diluted 1:1000 in Running Buffer without DMSO. […] SPR binding analyses were performed in Single Cycle Kinetic (SCK) mode at 25° C.
(§2) For each test compound, SPR raw data in the form of resonance units (RU) were plotted as sensorgrams using the Biacore™ T200 control software. The signal from the blank sensorgram was subtracted from that of the test compound sensorgram (blank corrected). The blank corrected sensorgram was corrected for baseline drift by subtracting the sensorgram of a SCK run without the test compound (running buffer only). […] Raw data and fit results were imported as text files in IDBS. The pKD value (negative decadic logarithm of dissociation constant) was calculated in the IDBS excel template.

[2] = target: T1, Fc-fusion protein of human carbonic …; experiment: SPR, captured hCAIX-Fc; pKD category A: >8.0
Protocol: as §1, §2

[3] = target: T1, Fc-fusion protein of human carbonic …; experiment: SPR, captured hCAIX-Fc; t1/2 category B: 5.1-15.0 min
Protocol: as §1, §2

| Binder | t1/2 (half-life of the complex, SPR) [1] | pKD [2] | t1/2 (half-life of the complex, SPR) [3] |
| --- | --- | --- | --- |
| {DOTA-PPAc}-QCE[dP]D[Af3(Hsfu)]LTWSC-NH2 (linker 2-11 via mXylylene) [3BP-4788] | > 15 min |  |  |
| {GaDOTA-PPAc}-QCE[dP]D[Phe(3-NHCO(CH2)3SO2NH2)]LTWSC-NH2 (linker 2-11 via mXylylene; also: gallium in DOTA, also called natGa-DPI-4452) [3BP-4529] | > 15 min |  |  |
| {DOTA}-QCE[dP]D[Aph(SaPr)″]LTWSC-NH2 (linker 2-11 via mXylylene; also: Ga complexed in DOTA) [3BP-4602] | > 15 min |  |  |
| B1 | > 15 min | > 8 pkd |  |
| {DOTA-PPAc}-QCE[dP]D[Af3(4SaPy2Ac)]LTWSC-NH2 (linker 2-11 via mXylylene) [3BP-4790] | > 15 min |  |  |
| {DOTA-APAc″}-VYCE[dP]D[Af3(TzPr)]LTWSC-NH2 (linker 3-12 via mXylylene) [3BP-4324] | > 15 min | > 8 pkd |  |
| B2 | > 15 min |  |  |
| B3 | > 15 min | > 8 pkd |  |
| Ac-VYCE[Nlys](DOTA)DWLTWAC-NH2 (linker 3-12 via mXylylene) [3BP-3562] | > 15 min | > 8 pkd |  |
| {DOTA-APAc″}-VYCE[dP]D[Af3(Ac-Glu)]LTWSC-NH2 (linker 3-12 via mXylylene) [3BP-4361] | > 15 min | > 8 pkd |  |
| B4 | > 15 min | > 8 pkd |  |
| {DOTA-APAc}-VYCE[dP]C(Bn)WLTWSC-NH2 (linker 3-12 via mXylylene; not fully specified; reading uncertain) [3BP-4128] | > 15 min | > 8 pkd |  |
| {DOTA-APAc}-VYCE[dP]DWLTWEC-NH2 (linker 3-12 via mXylylene; not fully specified (residue 11); reading uncertain) [3BP-4122] | > 15 min | > 8 pkd |  |
| Ac-VYCE[dP]DWLTWE([Apr-DOTA])C-NH2 (linker 3-12 via mXylylene; reading uncertain) [3BP-3478] | > 15 min | > 8 pkd |  |
| {DOTA-APAc″}-VYCE[dP]DWLTWAC-NH2 (linker 3-12 via mXylylene) [3BP-3432] | > 15 min | > 8 pkd |  |
| {DOTA-APAc}-VYCE[dP]DWLE(AGLU′)WSC-NH2 (linker 3-12 via mXylylene; reading uncertain) [3BP-4121] | > 15 min | > 8 pkd |  |
| B5 | > 15 min | > 8 pkd |  |
| {DOTA-APAc″}-VYCE[dP]E(N4BzlCl)WLTWSC-NH2 (linker 3-12 via mXylylene; reading uncertain) [3BP-4334] | > 15 min | > 8 pkd |  |
| {DOTA-APAc}-VYCE[dP]NWLTWSC-NH2 (linker 3-12 via mXylylene; reading uncertain) [3BP-4103] | > 15 min | > 8 pkd |  |
| {DOTA-Ttds″}-VYCE[dA]DWLTWAC-NH2 (linker 3-12 via mXylylene; not fully specified) [3BP-3279] |  | > 8 pkd | 5.1 to 15 min |
| {DOTA-APAc}-VYCE[dP][hSer]WLTWSC-NH2 (linker 3-12 via mXylylene; reading uncertain) [3BP-4102] | > 15 min | > 8 pkd |  |
| {DOTA-APAc″}-VYCE[dP]DW[tBuAla]TWSC-NH2 (linker 3-12 via mXylylene) [3BP-4142] | > 15 min | > 8 pkd |  |
| B6 | > 15 min | > 8 pkd |  |
| {DOTA-PPAc}-QCE[dP]D[Af3(2Py6SaNH)]LTWSC-NH2 (linker 2-11 via mXylylene) [3BP-4514] |  |  | 5.1 to 15 min |
| {DOTA-APAc}-VYCE[dP][NMeD]WLTWSC-NH2 (linker 3-12 via mXylylene; reading uncertain) [3BP-4107] | > 15 min | > 8 pkd |  |
| {DOTA-APAc″}-VECE[dP]DWLTW[Dap]C-NH2 (lactam 2-11; linker 3-12 via mXylylene) [3BP-4175] | > 15 min | > 8 pkd |  |
| {DOTA-PPAc}-QCE[dP]D[Aph(SaPr)]LTWSC-NH2 (linker 2-11 via mXylylene) [3BP-4500] | > 15 min |  |  |
| {DOTA-APAc}-VYCE[dP][Eem]WLTWSC-NH2 (linker 3-12 via mXylylene; not fully specified; reading uncertain) [3BP-4123] | > 15 min | > 8 pkd |  |
| {DOTA-APAc″}-VYCE[dP]D[Af3(HO-Succinyl)]LTWSC-NH2 (linker 3-12 via mXylylene) [3BP-4237] | > 15 min | > 8 pkd |  |
